Experimental data reported in publication PMC4759549.

Assays:
[1] = biological target: STY3178, a yfdX protein from Salmonella Typhi (Salmonella Typhi (CT18)); experiment: SEC
[2] = biological target: STY3178, a yfdX protein from Salmonella Typhi (Salmonella Typhi (CT18)); experiment: NMR relaxation (1D 1H-15N T1 and T2, rotational correlation time)

“STY3178, a yfdX protein from Salmonella Typhi (natural protein)” gave a stoichiometry N [1] of 3 and a stoichiometry N [2] of 3.
